From patent US20240279356A1 (Xencor, published 2024) come the findings set out here.

Numbering of substitutions follows the chain as printed. In names and notes the source's numbering stands.

Assay [1] addresses T1, cyno MSLN (Macaca fascicularis (cynomolgus)).
T1 construct: soluble antigen for Octet; also called cynomolgus MSLN
Kind of assay: Octet BLI; bsAb on anti-human Fc sensor, cyno MSLN as analyte, one concentration. (In general: BLI is a label-free optical method that tracks binding on a fibre tip over time.)

The target of assay [2] is T2, human MSLN antigen (human, UniProt Q13421 296-580, limits assumed).
T2 construct: Soluble antigen for BLI; also called Mesothelin; MESO
T2 sequence (Q13421 other isoform, or with tags, fused parts or gaps limits assumed): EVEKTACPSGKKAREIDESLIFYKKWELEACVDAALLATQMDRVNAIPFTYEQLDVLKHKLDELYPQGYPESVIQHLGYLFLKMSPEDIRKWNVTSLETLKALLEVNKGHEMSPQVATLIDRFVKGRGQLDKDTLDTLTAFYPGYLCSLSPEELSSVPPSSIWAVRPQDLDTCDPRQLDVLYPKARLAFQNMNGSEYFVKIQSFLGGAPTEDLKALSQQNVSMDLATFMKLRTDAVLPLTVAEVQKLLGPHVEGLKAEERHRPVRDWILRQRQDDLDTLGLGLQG
Kind of assay: Octet BLI; bsAb on anti-human Fc sensor, human MSLN as analyte, one concentration. Details: Response: unit not given here. An excerpt: (§1) Variants of MESO-C were engineered by introducing point substitutions into the variable heavy region (VH) and the variable light region (VL) to generate 11 VH variants and 16 VL variants (sequences for which are depicted in FIG. 18 as H1.1-H1.13 and in FIG. 19 as L1.1-L1.18). An additional 4 VL variants were generated by combining useful point substitutions (sequences for which are depicted in FIG. 19 as L1.19-L1.22). WT and variant variable heavy regions were paired with WT and variant variable light regions to generate variant variable regions (Fvs) which were produced in the context of anti-MSLN×anti-CD3 bispecific antibodies. The bispecific antibodies were screened for MSLN binding affinity using Octet®, a BioLayer Interferometry (BLI)-based method. Experimental steps for Octet® generally include the following: Immobilization (capture of ligand to a biosensor); Association (dipping of ligand-coated biosensors into wells containing the analyte); and Dissociation (returning of biosensors to well containing buffer). In an initial screening, anti-human Fc sensors were used to capture the bispecific mAbs and dipped into human MSLN antigen (one concentration to screen large library). The resulting dissociation constant of illustrative variants (KD), association rate (kₐ), dissociation rate (kd), as well as sensorgram response are depicted in FIG. 20. In further screening of favorite variants identified in the initial screen (and combination variants), bispecific mAbs were dipped into multiple concentrations of human MSLN antigen, data for which are depicted in FIG. 21 (from various screens).

The target in assay [3] is T2, human MSLN antigen. Kind of assay: Octet BLI; bsAb on anti-human Fc sensor, human MSLN as analyte, several concentrations.
From the text: as §1

B1: XENP32556 (bispecific antibody)
Fab-Fc heavy chain (anti-MSLN VH): QVQLVQSGAEVKKPGASVKVSCKASGYTFTSYWMHWVRQAPGQGLEWMGMIHPNSDNTIYYEKFQGRVTMTVDKSISTAYMELSRLRSDDTAVYYCARIITPVVPKFDYWGQGTLVTVSSASTKGPSVFPLAPSSKSTSGGTAALGCLVKDYFPEPVTVSWNSGALTSGVHTFPAVLQSSGLYSLSSVVTVPSSSLGTQTYICNVNHKPSDTKVDKKVEPKSCDKTHTCPPCPAPPVAGPSVFLFPPKPKDTLMISRTPEVTCVVVDVKHEDPEVKFNWYVDGVEVHNAKTKPREEEYNSTYRVVSVLTVLHQDWLNGKEYKCKVSNKALPAPIEKTISKAKGQPREPQVYTLPPSREEMTKNQVSLTCDVSGFYPSDIAVEWESDGQPENNYKTTPPVLDSDGSFFLYSKLTVDKSRWEQGDVFSCSVMHEALHNHYTQKSLSLSPGK
scFv-Fc heavy chain (anti-CD3 H1.30_L1.47): not shown
light chain (anti-MSLN VL): DIVMTQSPDSLAVSLGERATINCKASHDVGTSVAWYQQKPGQSPKLLIYWASTRHTGVPDRFTGSGSGTDFTLTISSLQAEDVAVYFCQQYSSYPLTFGAGTKLEIKRTVAAPSVFIFPPSDEQLKSGTASVVCLLNNFYPREAKVQWKVDNALQSGNSQESVTEQDSKDSTYSLSSTLTLSKADYEKHKVYACEVTHQGLSSPVTKSFNRGEC
notes: 1+1 Fab-scFv-Fc bsAb; VH I94R, VL WT (Kabat); also called MESO-C H1.7_L1
Regarding B1, in assay [1], the Kd (commonly the constant that tells how readily two partners part at equilibrium) worked out at 0.395 nM, the Response is 1.07, the koff (commonly a measure of how fast the partners let go of each other) came to 0.000157 s⁻¹ and the kon (usually the second-order rate constant of association) came to 399000 M⁻¹ s⁻¹. Besides, in assay [2], the dissociation constant Kd is 0.469 nM, the Response is 1.18, the koff is 0.000199 s⁻¹ and the kon came out at 425000 M⁻¹ s⁻¹.

B2: XENP32940 (bispecific antibody)
heavy: B1 Fab-Fc heavy chain (anti-MSLN VH) with M50W, R98I
scFv-Fc: not shown
light: B1 light chain (anti-MSLN VL) with Y94F
notes: VH M50W, VL Y100F as printed; also called MESO-C H1.3_L1.14; copies: 1 + 1 + 1
Take B2: in assay [3], the Kd amounted to 246 nM, the Response is 0.136, the koff came to 0.0816 s⁻¹ and the kon turned out to be 332000 M⁻¹ s⁻¹.

B3: XENP32559 (bispecific antibody)
Fab-Fc heavy chain (anti-MSLN VH): B1 Fab-Fc heavy chain (anti-MSLN VH) with R98I
scFv-Fc heavy chain (anti-CD3 H1.30_L1.47): not shown
light chain (anti-MSLN VL): B1 light chain (anti-MSLN VL) with A25S
notes: 1+1 Fab-scFv-Fc bsAb; VH WT, VL A25S (Kabat); also called MESO-C H1_L1.1
In the case of B3, in assay [1], the equilibrium dissociation constant (Kd) amounted to 0.223 nM, the Response is 1.04, the off-rate constant (koff) worked out at 0.000128 s⁻¹ and the kon was 575000 M⁻¹ s⁻¹. For the same molecule, in assay [2], the equilibrium dissociation constant (Kd) came to 0.283 nM, the Response came out at 1.11, the koff turned out to be 0.000161 s⁻¹ and the association rate constant (kon) stood at 569000 M⁻¹ s⁻¹.

B4: XENP32568 (bispecific antibody)
Fab-Fc heavy chain (anti-MSLN VH): B1 Fab-Fc heavy chain (anti-MSLN VH) with R98I
scFv-Fc heavy chain (anti-CD3 H1.30_L1.47): not shown
light chain (anti-MSLN VL): B1 light chain (anti-MSLN VL) with Y94T
notes: 1+1 Fab-scFv-Fc bsAb; VH WT, VL Y94T (Kabat); also called MESO-C H1_L1.10
On to B4, for which the Response amounted to 0.0728 in assay [1] and 0.107 in assay [2].

B5: XENP32565 (bispecific antibody)
Fab-Fc heavy chain (anti-MSLN VH): B1 Fab-Fc heavy chain (anti-MSLN VH) with R98I
scFv-Fc heavy chain (anti-CD3 H1.30_L1.47): not shown
light chain (anti-MSLN VL): B1 light chain (anti-MSLN VL) with H55E
notes: 1+1 Fab-scFv-Fc bsAb; VH WT, VL H55E (Kabat); also called MESO-C H1_L1.7
In assay [1], B5 returned a Kd of 0.255 nM, a Response of 1, a koff of 0.000151 s⁻¹ and a kon of 592000 M⁻¹ s⁻¹. Further, in assay [2], the Kd was 0.286 nM, the Response is 1.11, the koff stood at 0.000169 s⁻¹ and the kon turned out to be 590000 M⁻¹ s⁻¹.

B6: XENP32569 (bispecific antibody)
heavy: B1 Fab-Fc heavy chain (anti-MSLN VH) with N54Q, R98I
scFv-Fc: not shown
light: B1 light chain (anti-MSLN VL) with D28S
notes: VH N53Q, VL D28S (Kabat); also called MESO-C H1.5_L1.3; copies: 1 + 1 + 1
In assay [1], B6 gave a Kd of 0.189 nM, a Response of 0.867, a koff of 0.000125 s⁻¹ and a kon of 660000 M⁻¹ s⁻¹. In assay [2], the Kd stood at 0.135 nM, the Response came to 0.978, the off-rate constant (koff) worked out at 9.35e-05 s⁻¹ and the kon came to 693000 M⁻¹ s⁻¹.

B7: XENP32943 (bispecific antibody)
heavy: B1 Fab-Fc heavy chain (anti-MSLN VH) with M50W, R98I
scFv-Fc: not shown
light: B1 light chain (anti-MSLN VL) with Y94I
notes: VH M50W, VL Y94I as printed; also called MESO-C H1.3_L1.17; copies: 1 + 1 + 1
As for B7, in assay [3], the Response came out at 0.0022 and the binding result is “no binding”.

B8: XENP32558 (bispecific antibody)
Fab-Fc heavy chain (anti-MSLN VH): B1 Fab-Fc heavy chain (anti-MSLN VH) with R98I, K106R
scFv-Fc heavy chain (anti-CD3 H1.30_L1.47): not shown
light chain (anti-MSLN VL): B1 light chain (anti-MSLN VL)
notes: 1+1 Fab-scFv-Fc bsAb; VH K100bR, VL WT (Kabat); also called MESO-C H1.9_L1
B8: in assay [1], the Kd came out at 0.7 nM, the Response was 1.11, the koff stood at 0.000166 s⁻¹ and the on-rate constant (kon) came out at 238000 M⁻¹ s⁻¹. In addition, in assay [2], the equilibrium dissociation constant (Kd) came to 0.795 nM, the Response is 1.17, the koff was 0.000198 s⁻¹ and the kon was found to be 249000 M⁻¹ s⁻¹.

B9: XENP32938 (bispecific antibody)
heavy: B1 Fab-Fc heavy chain (anti-MSLN VH) with E62Y, R98I
scFv-Fc: not shown
light: B1 light chain (anti-MSLN VL) with S92Y
notes: VH E61Y, VL S92Y as printed; also called MESO-C H1.13_L1.9; copies: 1 + 1 + 1
As to B9, in assay [3], the equilibrium dissociation constant (Kd) turned out to be 16.2 nM, the Response stood at 0.169, the dissociation rate constant (koff) came to 0.0103 s⁻¹ and the kon was 635000 M⁻¹ s⁻¹.

B10: XENP32939 (bispecific antibody)
heavy: B1 Fab-Fc heavy chain (anti-MSLN VH) with M50W, R98I
scFv-Fc: not shown
light: B1 light chain (anti-MSLN VL) with T31Q
notes: VH M50W, VL T37Q as printed; also called MESO-C H1.3_L1.13; copies: 1 + 1 + 1
For B10, in assay [3], the Kd is 90.4 nM, the Response was determined as 0.202, the koff was 0.0383 s⁻¹ and the kon is 424000 M⁻¹ s⁻¹.

B11: XENP32557 (bispecific antibody)
Fab-Fc heavy chain (anti-MSLN VH): B1 Fab-Fc heavy chain (anti-MSLN VH) with R98I, T101S
scFv-Fc heavy chain (anti-CD3 H1.30_L1.47): not shown
light chain (anti-MSLN VL): B1 light chain (anti-MSLN VL)
notes: 1+1 Fab-scFv-Fc bsAb; VH T97S, VL WT (Kabat); also called MESO-C H1.8_L1
In assay [1], B11 came in with a dissociation constant (Kd) of 0.62 nM, a Response of 1.09, a koff of 0.000321 s⁻¹ and an association rate constant (kon) of 518000 M⁻¹ s⁻¹. In addition, in assay [2], the dissociation constant Kd turned out to be 0.721 nM, the Response was found to be 1.15, the koff amounted to 0.000374 s⁻¹ and the kon worked out at 519000 M⁻¹ s⁻¹.

B12: XENP32560 (bispecific antibody)
Fab-Fc heavy chain (anti-MSLN VH): B1 Fab-Fc heavy chain (anti-MSLN VH) with R98I
scFv-Fc heavy chain (anti-CD3 H1.30_L1.47): not shown
light chain (anti-MSLN VL): B1 light chain (anti-MSLN VL) with H27Q
notes: 1+1 Fab-scFv-Fc bsAb; VH WT, VL H27Q (Kabat); also called MESO-C H1_L1.2
In assay [1], B12 displayed a Kd of 1.2 nM, a Response of 0.948, a dissociation rate constant (koff) of 0.000762 s⁻¹ and an association rate constant (kon) of 634000 M⁻¹ s⁻¹. In addition, in assay [2], the Kd came out at 0.633 nM, the Response amounted to 1.03, the dissociation rate constant (koff) came out at 0.000383 s⁻¹ and the on-rate (kon) was found to be 605000 M⁻¹ s⁻¹.

B13: XENP32570 (bispecific antibody)
heavy: B1 Fab-Fc heavy chain (anti-MSLN VH) with D56G, R98I
scFv-Fc: not shown
light: B1 light chain (anti-MSLN VL) with D28S
notes: VH D55G, VL D28S (Kabat); also called MESO-C H1.6_L1.3; copies: 1 + 1 + 1
In the case of B13, in assay [1], binding was put at a Kd of 0.155 nM, the Response stood at 0.95, the off-rate constant (koff) came out at 0.000105 s⁻¹ and the on-rate (kon) is 676000 M⁻¹ s⁻¹. Also, in assay [2], the Kd was 0.103 nM, the Response was found to be 0.981, the off-rate (koff) was found to be 7.35e-05 s⁻¹ and the kon worked out at 717000 M⁻¹ s⁻¹.

B14: XENP32566 (bispecific antibody)
Fab-Fc heavy chain (anti-MSLN VH): B1 Fab-Fc heavy chain (anti-MSLN VH) with R98I
scFv-Fc heavy chain (anti-CD3 H1.30_L1.47): not shown
light chain (anti-MSLN VL): B1 light chain (anti-MSLN VL) with T56S
notes: 1+1 Fab-scFv-Fc bsAb; VH WT, VL T56S (Kabat); also called MESO-C H1_L1.8
On to B14, for which, in assay [1], the Kd was 0.163 nM, the Response turned out to be 0.941, the dissociation rate constant (koff) is 0.0001 s⁻¹ and the on-rate constant (kon) was found to be 616000 M⁻¹ s⁻¹. In addition, in assay [2], the dissociation constant (Kd) came to 0.18 nM, the Response turned out to be 1.05, the dissociation rate constant (koff) worked out at 0.000113 s⁻¹ and the association rate constant (kon) came to 627000 M⁻¹ s⁻¹.

B15: XENP32564 (bispecific antibody)
Fab-Fc heavy chain (anti-MSLN VH): B1 Fab-Fc heavy chain (anti-MSLN VH) with R98I
scFv-Fc heavy chain (anti-CD3 H1.30_L1.47): not shown
light chain (anti-MSLN VL): B1 light chain (anti-MSLN VL) with V33L
notes: 1+1 Fab-scFv-Fc bsAb; VH WT, VL V33L (Kabat); also called MESO-C H1_L1.6
For the molecule B15, in assay [1], the equilibrium dissociation constant (Kd) is 0.0297 nM, the Response was 0.849, the koff came to 2.01e-05 s⁻¹ and the kon worked out at 676000 M⁻¹ s⁻¹. Besides, in assay [2], the Kd is 0.0861 nM, the Response amounted to 0.952, the off-rate constant (koff) is 5.68e-05 s⁻¹ and the kon was found to be 660000 M⁻¹ s⁻¹.
